These results are taken from patent publication US20090074782A1 (ONCOMED PHARMACEUTICALS, published 2009).

B2: RSPO1-CD4™ (ligand)
chain: SRGIKGKRQRRISAEGSQACAKGCELCSEVNGCLKCSPKLFILLERNDIRQVGVCLPSCPPGYFDARNPDMNKCIKCKIEHCEACFSHNFCTKCKEGLYLHKGRCYPACPEGSSAANGTMECSSPAQCEMSEWSPWGPCSKKQQLCGFRRGSEERTRRVLHAPVGDHAACSDTKETRRCTVRRVPCPEGQKRRKGGQGRRENANRNLARKESKEAGAGSRRRKGQQQQQQQGTVGPLTSAGPA
notes: domain: transmembrane domain; Transiently expressed on HEK 293 cells together with GFP; also called cell-surface RSPO1; RSPO1-CD4TM; not shown: transmembrane domain of CD4

The experiment “RSPO1-CD4™” concerns the target B2. Nature of the experiment: FACS, Fc fusion on HEK 293 cells transfected with RSPO1-CD4™ and GFP. How it is done: (§1) To determine the mechanism by which RSPO1 activates beta-catenin signaling, FACS analysis was used to assess binding between RSPO1 and LGR5. In certain embodiments, binding between soluble LGR5 and cell-surface RSPO1 was determined. A cell-surface RSPO1 protein was generated by ligating full-length human RSPO1 to the transmembrane domain of CD4 using standard recombinant DNA techniques (RSPO1-CD4™). HEK 293 cells were transiently transfected RSPO1-CD4™ and GFP. After 48 hours, cells were suspended in ice cold PBS containing 2% FCS and then incubated on ice in the presence of LGR5-Fc, LRP6-ECD-Fc (containing the extracellular domain of human LRP6 fused to an Fc domain), LRP6E1-2-Fc (containing amino acids 1-629 of human LRP6 fused to an Fc domain), or various FZD-Fc constructs, including FZD1-10. […] Only a weak interaction between RSPO1 and the WNT co-receptor LRP6 was detected.
(In general: A flow cytometer gives signals particle by particle.)

The target of another experiment is FZD7-Fc (UniProt O75084 33-170). Described as above. How it is done: as §1
For the next experiment, the target named is T1, FZD1-Fc (UniProt Q9UP38 87-237).
T1 construct: One of the 'various FZD-Fc constructs, including FZD1-10'; not shown: Fc
The experiment is described as above. How it is done:
as §1

The next experiment has as its target FZD2-Fc (UniProt Q14332 24-159). Described as above. How it is done:
as §1

For another experiment, the target named is T2, FLAG-LGR5-CD4™ (human, UniProt O75473 22-564).
T2 construct: domain: transmembrane domain; Transiently expressed on HEK 293 cells together with GFP; also called variant cell-surface LGR5 protein; cell-associated LGR5 construct; not shown: N-terminal FLAG tag; transmembrane domain of CD4
T2 sequence: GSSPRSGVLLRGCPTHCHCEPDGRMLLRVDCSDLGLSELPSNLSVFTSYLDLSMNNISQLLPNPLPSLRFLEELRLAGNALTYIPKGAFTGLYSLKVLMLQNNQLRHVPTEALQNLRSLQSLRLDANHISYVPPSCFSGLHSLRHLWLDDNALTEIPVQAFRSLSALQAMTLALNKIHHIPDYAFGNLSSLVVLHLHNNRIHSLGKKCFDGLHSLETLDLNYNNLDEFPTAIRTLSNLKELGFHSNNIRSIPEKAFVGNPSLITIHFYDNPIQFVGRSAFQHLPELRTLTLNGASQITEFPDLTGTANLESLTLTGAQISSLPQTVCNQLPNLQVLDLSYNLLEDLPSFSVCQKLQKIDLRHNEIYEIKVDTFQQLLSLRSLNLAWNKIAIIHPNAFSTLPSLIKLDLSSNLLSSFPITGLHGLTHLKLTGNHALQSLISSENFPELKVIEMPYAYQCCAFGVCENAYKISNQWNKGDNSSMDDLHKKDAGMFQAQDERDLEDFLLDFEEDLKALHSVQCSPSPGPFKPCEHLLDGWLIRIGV
Nature of the experiment: FACS, Fc fusion on HEK 293 cells transfected with FLAG-LGR5-CD4™ and GFP, with heparin. How it is done: In certain embodiments, binding between soluble RSPO1 and cell-surface LGR5 was determined. A variant cell-surface LGR5 protein was generated by ligating amino acids 22-564 of LGR5 to an N-terminal FLAG tag and to the transmembrane domain of CD4 using standard recombinant DNA techniques (FLAG-LGR5-CD4™). HEK 293 cells were transiently transfected with FLAG-LGR5-CD4™ and GFP. After 48 hours, cells were suspended in ice cold PBS containing 2% FCS and heparin and then incubated on ice in the presence of RSPO1-Fc, FZD8-Fc, or a FLAG antibody as a positive control.

B1: FZD6-Fc (Fc fusion, UniProt O60353 19-146, looked up)
chain: HSLFTCEPITVPRCMKMAYNMTFFPNLMGHYDQSIAAVEMEHFLPLANLECSPNIETFLCKAFVPTCIEQIHVVPPCRKLCEKVYSDCKKLIDTFGIRWPEELECDRLQYCDETVPVTFDPHTEFLGP
notes: One of the 'various FZD-Fc constructs, including FZD1-10'; not shown: Fc
As for B1, the binding result with RSPO1-CD4™ is listed as “no binding”.

In the case of B2, the binding result in the experiment with FZD7-Fc, with FZD1-Fc and with FZD2-Fc was “no binding” in each case.

B3: FZD3-Fc (Fc fusion, UniProt Q9NPG1 23-143, looked up)
chain: HSLFSCEPITLRMCQDLPYNTTFMPNLLNHYDQQTAALAMEPFHPMVNLDCSRDFRPFLCALYAPICMEYGRVTLPCRRLCQRAYSECSKLMEMFGVPWPEDMECSRFPDCDEPYPRLVDL
notes: as for B1
Regarding B3, the binding result with RSPO1-CD4™ was “no binding”.

B4: FZD9-Fc (Fc fusion, UniProt O00144 23-159, looked up)
chain: LEIGRFDPERGRGAAPCQAVEIPMCRGIGYNLTRMPNLLGHTSQGEAAAELAEFAPLVQYGCHSHLRFFLCSLYAPMCTDQVSTPIPACRPMCEQARLRCAPIMEQFNFGWPDSLDCARLPTRNDPHALCMEAPENA
notes: as for B1
On to B4, for which, in the experiment with RSPO1-CD4™, the binding result was “no binding”.

B5: FZD4-Fc (Fc fusion, UniProt Q9ULV1 40-170, looked up)
chain: EEERRCDPIRISMCQNLGYNVTKMPNLVGHELQTDAELQLTTFTPLIQYGCSSQLQFFLCSVYVPMCTEKINIPIGPCGGMCLSVKRRCEPVLKEFGFAWPESLNCSKFPPQNDHNHMCMEGPGDEEVPLP
notes: as for B1
On to B5, for which the binding result with RSPO1-CD4™ is listed as “no binding”.

B6: FZD8-Fc (Fc fusion, UniProt Q9H461 28-158, looked up)
chain: ASAKELACQEITVPLCKGIGYNYTYMPNQFNHDTQDEAGLEVHQFWPLVEIQCSPDLKFFLCSMYTPICLEDYKKPLPPCRSVCERAKAGCAPLMRQYGFAWPDRMRCDRLPEQGNPDTLCMDYNRTDLTT
notes: One of the 'various FZD-Fc constructs, including FZD1-10'; also used against FLAG-LGR5-CD4™ cells; also called soluble FZD8; not shown: Fc
With B6, the binding result in the experiment with RSPO1-CD4™ and with FLAG-LGR5-CD4™ was “no binding” each time.

B7: FZD10-Fc (Fc fusion, UniProt Q9ULW2 21-154, looked up)
chain: ISSMDMERPGDGKCQPIEIPMCKDIGYNMTRMPNLMGHENQREAAIQLHEFAPLVEYGCHGHLRFFLCSLYAPMCTEQVSTPIPACRVMCEQARLKCSPIMEQFNFKWPDSLDCRKLPNKNDPNYLCMEAPNNG
notes: One of the 'various FZD-Fc constructs, including FZD1-10'; also called soluble FZD10; not shown: Fc
Take B7: the binding result with RSPO1-CD4™ is “no binding”.

B8: FZD5-Fc (Fc fusion, UniProt Q13467 27-157, looked up)
chain: ASKAPVCQEITVPMCRGIGYNLTHMPNQFNHDTQDEAGLEVHQFWPLVEIQCSPDLRFFLCSMYTPICLPDYHKPLPPCRSVCERAKAGCSPLMRQYGFAWPERMSCDRLPVLGRDAEVLCMDYNRSEATT
notes: as for B1
In the case of B8, the binding result with RSPO1-CD4™ was “no binding”.
